Results reported in patent US20250236673A1 (Ablynx, published 2025).

T1: recombinant human CEACAM5 (human, UniProt P06731 35-685, limits assumed)
T1 construct: Immobilised by amine coupling on a CM5 chip
T1 sequence (looked up): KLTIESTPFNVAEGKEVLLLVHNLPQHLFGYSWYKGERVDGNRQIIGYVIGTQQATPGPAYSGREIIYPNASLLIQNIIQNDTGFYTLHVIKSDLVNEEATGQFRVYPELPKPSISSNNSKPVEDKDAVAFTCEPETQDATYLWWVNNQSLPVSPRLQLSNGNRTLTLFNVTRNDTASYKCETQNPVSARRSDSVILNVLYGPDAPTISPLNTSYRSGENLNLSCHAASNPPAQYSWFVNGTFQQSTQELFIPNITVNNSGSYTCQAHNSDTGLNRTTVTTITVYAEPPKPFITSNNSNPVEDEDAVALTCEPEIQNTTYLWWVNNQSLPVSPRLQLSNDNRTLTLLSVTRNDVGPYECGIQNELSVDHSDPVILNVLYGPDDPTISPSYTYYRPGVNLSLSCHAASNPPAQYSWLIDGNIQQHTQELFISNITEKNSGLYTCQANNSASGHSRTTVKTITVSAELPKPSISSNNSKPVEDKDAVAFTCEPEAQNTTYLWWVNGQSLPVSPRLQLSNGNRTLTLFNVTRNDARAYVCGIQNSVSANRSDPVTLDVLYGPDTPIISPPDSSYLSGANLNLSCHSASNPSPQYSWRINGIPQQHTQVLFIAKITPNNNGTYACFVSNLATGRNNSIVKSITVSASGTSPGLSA


Biological target: T1, recombinant human CEACAM5
Test: SPR Biacore 8K+, CEACAM5 amine-coupled on CM5, ISVD analyte, 1:1 fit

Row | Kd | koff | kon | Binder
1 | 8.9 nM | 0.00212 s⁻¹ | 238000 M⁻¹ s⁻¹ | T028501817 (VHH, also called A031500099; A0315024B02(L11V, A14P, D16G S23A, M43K, Q64K, K83R, G85E, G89L)) VHH: EVQLVESGGGVVQPGGSLRLSCAASGHTFSEYALGWFRQAPGKEREFVAAINWGGGWTYYADSVKGRFTISRDNAKNTLYLQMNSLRPEDTALYYCAASSDYAGGNPTGYPYWGQGTLVTVSS
2 | 12.2 nM | 0.00249 s⁻¹ | 205000 M⁻¹ s⁻¹ | T028501824 (VHH, also called A0315024B02(M43K, (K64K83R))) VHH: EVQLVESGGGVVQPGGSLRLSCAASGHTFSEYALGWFRQAPGKEREFVAAINWGGGWTYYADSVQGRFTISRDNAKNTLYLQMNSLRPEDTALYYCAASSDYAGGNPTGYPYWGQGTLVTVSS
3 | 7.95 nM | 0.00235 s⁻¹ | 295000 M⁻¹ s⁻¹ | T028501827 (VHH, K64A vs precursor T028501817; also called A0315024B02(M43K, Q64A, K83R)) VHH: EVQLVESGGGVVQPGGSLRLSCAASGHTFSEYALGWFRQAPGKEREFVAAINWGGGWTYYADSVAGRFTISRDNAKNTLYLQMNSLRPEDTALYYCAASSDYAGGNPTGYPYWGQGTLVTVSS
4 | 18.2 nM | 0.00282 s⁻¹ | 155000 M⁻¹ s⁻¹ | T028501823 (VHH, K64E vs precursor T028501817; also called A0315024B02(M43K, Q64E, K83R)) VHH: EVQLVESGGGVVQPGGSLRLSCAASGHTFSEYALGWFRQAPGKEREFVAAINWGGGWTYYADSVEGRFTISRDNAKNTLYLQMNSLRPEDTALYYCAASSDYAGGNPTGYPYWGQGTLVTVSS
5 | 9.11 nM | 0.00193 s⁻¹ | 212000 M⁻¹ s⁻¹ | T028501821 (VHH, K43H vs precursor T028501817; also called A0315024B02(M43H, Q64K, K83R)) VHH: EVQLVESGGGVVQPGGSLRLSCAASGHTFSEYALGWFRQAPGHEREFVAAINWGGGWTYYADSVKGRFTISRDNAKNTLYLQMNSLRPEDTALYYCAASSDYAGGNPTGYPYWGQGTLVTVSS
6 | 8.77 nM | 0.00198 s⁻¹ | 225000 M⁻¹ s⁻¹ | T028501822 (VHH, K43A vs precursor T028501817; also called A0315024B02(M43A, Q64K, K83R)) VHH: EVQLVESGGGVVQPGGSLRLSCAASGHTFSEYALGWFRQAPGAEREFVAAINWGGGWTYYADSVKGRFTISRDNAKNTLYLQMNSLRPEDTALYYCAASSDYAGGNPTGYPYWGQGTLVTVSS
7 | 7.13 nM | 0.00172 s⁻¹ | 242000 M⁻¹ s⁻¹ | T028501820 (VHH, K43R vs precursor T028501817; also called A0315024B02(M43R, Q64K, K83R)) VHH: EVQLVESGGGVVQPGGSLRLSCAASGHTFSEYALGWFRQAPGREREFVAAINWGGGWTYYADSVKGRFTISRDNAKNTLYLQMNSLRPEDTALYYCAASSDYAGGNPTGYPYWGQGTLVTVSS
8 | 7.27 nM | 0.00241 s⁻¹ | 331000 M⁻¹ s⁻¹ | T028501825 (VHH, K64R vs precursor T028501817; also called A0315024B02(M43K, Q64R, K83R)) VHH: EVQLVESGGGVVQPGGSLRLSCAASGHTFSEYALGWFRQAPGKEREFVAAINWGGGWTYYADSVRGRFTISRDNAKNTLYLQMNSLRPEDTALYYCAASSDYAGGNPTGYPYWGQGTLVTVSS
9 | 8.74 nM | 0.00199 s⁻¹ | 228000 M⁻¹ s⁻¹ | T028501819 (VHH, K43Q vs precursor T028501817; also called A0315024B02(M43Q, Q64K, K83R)) VHH: EVQLVESGGGVVQPGGSLRLSCAASGHTFSEYALGWFRQAPGQEREFVAAINWGGGWTYYADSVKGRFTISRDNAKNTLYLQMNSLRPEDTALYYCAASSDYAGGNPTGYPYWGQGTLVTVSS
10 | 8.42 nM | 0.00232 s⁻¹ | 275000 M⁻¹ s⁻¹ | T028501826 (VHH, K64H vs precursor T028501817; also called A0315024B02(M43K, Q64H, K83R)) VHH: EVQLVESGGGVVQPGGSLRLSCAASGHTFSEYALGWFRQAPGKEREFVAAINWGGGWTYYADSVHGRFTISRDNAKNTLYLQMNSLRPEDTALYYCAASSDYAGGNPTGYPYWGQGTLVTVSS
11 | 10.5 nM | 0.00226 s⁻¹ | 215000 M⁻¹ s⁻¹ | T028501818 (VHH, K43E vs precursor T028501817; also called A0315024B02(M43E, Q64K, K83R)) VHH: EVQLVESGGGVVQPGGSLRLSCAASGHTFSEYALGWFRQAPGEEREFVAAINWGGGWTYYADSVKGRFTISRDNAKNTLYLQMNSLRPEDTALYYCAASSDYAGGNPTGYPYWGQGTLVTVSS
12 | 1.71 nM | 0.00085 s⁻¹ | 498000 M⁻¹ s⁻¹ | T028501790 (VHH, K43E vs precursor T028501789; also called A0315007E07(K43E)) VHH: EVQLVESGGGVVQPGGSLRLSCAASGLTFSTYTMGWFRQAPGEEREFVAAIIWSGSNTYYADSVKGRFTISRDNAKNTVYLQMNSLRPEDTALYYCAAQHFGPIGLTTRGYHYWGQGTLVTVSS
13 | 1.56 nM | 0.000917 s⁻¹ | 586000 M⁻¹ s⁻¹ | T028501804 (VHH, K75A vs precursor T028501789; also called A0315007E07(K75A)) VHH: EVQLVESGGGVVQPGGSLRLSCAASGLTFSTYTMGWFRQAPGKEREFVAAIIWSGSNTYYADSVKGRFTISRDNAANTVYLQMNSLRPEDTALYYCAAQHFGPIGLTTRGYHYWGQGTLVTVSS
14 | 1.59 nM | 0.00107 s⁻¹ | 675000 M⁻¹ s⁻¹ | T028501797 (VHH, K64R vs precursor T028501789; also called A0315007E07(K64R)) VHH: EVQLVESGGGVVQPGGSLRLSCAASGLTFSTYTMGWFRQAPGKEREFVAAIIWSGSNTYYADSVRGRFTISRDNAKNTVYLQMNSLRPEDTALYYCAAQHFGPIGLTTRGYHYWGQGTLVTVSS
15 | 2.39 nM | 0.000962 s⁻¹ | 402000 M⁻¹ s⁻¹ | T028501798 (VHH, K64H vs precursor T028501789; also called A0315007E07(K64H)) VHH: EVQLVESGGGVVQPGGSLRLSCAASGLTFSTYTMGWFRQAPGKEREFVAAIIWSGSNTYYADSVHGRFTISRDNAKNTVYLQMNSLRPEDTALYYCAAQHFGPIGLTTRGYHYWGQGTLVTVSS
16 | 1.39 nM | 0.000897 s⁻¹ | 643000 M⁻¹ s⁻¹ | T028501802 (VHH, K75R vs precursor T028501789; also called A0315007E07(K75R)) VHH: EVQLVESGGGVVQPGGSLRLSCAASGLTFSTYTMGWFRQAPGKEREFVAAIIWSGSNTYYADSVKGRFTISRDNARNTVYLQMNSLRPEDTALYYCAAQHFGPIGLTTRGYHYWGQGTLVTVSS
17 | 1.72 nM | 0.000911 s⁻¹ | 529000 M⁻¹ s⁻¹ | T028501800 (VHH, K75E vs precursor T028501789; also called A0315007E07(K75E)) VHH: EVQLVESGGGVVQPGGSLRLSCAASGLTFSTYTMGWFRQAPGKEREFVAAIIWSGSNTYYADSVKGRFTISRDNAENTVYLQMNSLRPEDTALYYCAAQHFGPIGLTTRGYHYWGQGTLVTVSS
18 | 2.54 nM | 0.000976 s⁻¹ | 385000 M⁻¹ s⁻¹ | T028501799 (VHH, K64A vs precursor T028501789; also called A0315007E07(K64A)) VHH: EVQLVESGGGVVQPGGSLRLSCAASGLTFSTYTMGWFRQAPGKEREFVAAIIWSGSNTYYADSVAGRFTISRDNAKNTVYLQMNSLRPEDTALYYCAAQHFGPIGLTTRGYHYWGQGTLVTVSS
19 | 3.55 nM | 0.000914 s⁻¹ | 258000 M⁻¹ s⁻¹ | T028501795 (VHH, K64E vs precursor T028501789; also called A0315007E07(K64E)) VHH: EVQLVESGGGVVQPGGSLRLSCAASGLTFSTYTMGWFRQAPGKEREFVAAIIWSGSNTYYADSVEGRFTISRDNAKNTVYLQMNSLRPEDTALYYCAAQHFGPIGLTTRGYHYWGQGTLVTVSS
20 | 2.24 nM | 0.000929 s⁻¹ | 415000 M⁻¹ s⁻¹ | T028501796 (VHH, K64Q vs precursor T028501789; also called A0315007E07(K64Q)) VHH: EVQLVESGGGVVQPGGSLRLSCAASGLTFSTYTMGWFRQAPGKEREFVAAIIWSGSNTYYADSVQGRFTISRDNAKNTVYLQMNSLRPEDTALYYCAAQHFGPIGLTTRGYHYWGQGTLVTVSS
21 | 1.22 nM | 0.000877 s⁻¹ | 719000 M⁻¹ s⁻¹ | T028501793 (VHH, K43H vs precursor T028501789; also called A0315007E07(K43H)) VHH: EVQLVESGGGVVQPGGSLRLSCAASGLTFSTYTMGWFRQAPGHEREFVAAIIWSGSNTYYADSVKGRFTISRDNAKNTVYLQMNSLRPEDTALYYCAAQHFGPIGLTTRGYHYWGQGTLVTVSS
22 | 1.23 nM | 0.00092 s⁻¹ | 747000 M⁻¹ s⁻¹ | T028501792 (VHH, K43R vs precursor T028501789; also called A0315007E07(K43R)) VHH: EVQLVESGGGVVQPGGSLRLSCAASGLTFSTYTMGWFRQAPGREREFVAAIIWSGSNTYYADSVKGRFTISRDNAKNTVYLQMNSLRPEDTALYYCAAQHFGPIGLTTRGYHYWGQGTLVTVSS
23 | 1.45 nM | 0.00087 s⁻¹ | 602000 M⁻¹ s⁻¹ | T028501791 (VHH, K43Q vs precursor T028501789; also called A0315007E07(K43Q)) VHH: EVQLVESGGGVVQPGGSLRLSCAASGLTFSTYTMGWFRQAPGQEREFVAAIIWSGSNTYYADSVKGRFTISRDNAKNTVYLQMNSLRPEDTALYYCAAQHFGPIGLTTRGYHYWGQGTLVTVSS
24 | 1.46 nM | 0.00084 s⁻¹ | 574000 M⁻¹ s⁻¹ | T028501803 (VHH, K75H vs precursor T028501789; also called A0315007E07(K75H)) VHH: EVQLVESGGGVVQPGGSLRLSCAASGLTFSTYTMGWFRQAPGKEREFVAAIIWSGSNTYYADSVKGRFTISRDNAHNTVYLQMNSLRPEDTALYYCAAQHFGPIGLTTRGYHYWGQGTLVTVSS
25 | 1.58 nM | 0.000913 s⁻¹ | 579000 M⁻¹ s⁻¹ | T028501801 (VHH, K75Q vs precursor T028501789; also called A0315007E07(K75Q)) VHH: EVQLVESGGGVVQPGGSLRLSCAASGLTFSTYTMGWFRQAPGKEREFVAAIIWSGSNTYYADSVKGRFTISRDNAQNTVYLQMNSLRPEDTALYYCAAQHFGPIGLTTRGYHYWGQGTLVTVSS
26 | 1.54 nM | 0.000865 s⁻¹ | 562000 M⁻¹ s⁻¹ | T028501794 (VHH, K43A (Kabat) vs precursor T028501789; also called A0315007E07(K43A)) VHH: EVQLVESGGGVVQPGGSLRLSCAASGLTFSTYTMGWFRQAPGAEREFVAAIIWSGSNTYYADSVKGRFTISRDNAKNTVYLQMNSLRPEDTALYYCAAQHFGPIGLTTRGYHYWGQGTLVTVSS
